Experimental data as given in publication PMC2705707 (Journal of Structural and Functional Genomics, 2009).

Molecular target: the molecule itself
Test: SEC + other: SDS-PAGE

| Protein | stoichiometry N |
| --- | --- |
| YidH (natural protein, E. coli, UniProt P0ADM0 1-115, looked up) MKISRLGEAPDYRFSLANERTFLAWIRTALGFLAAGVGLDQLAPDFATPVIRELLALLLCLFSGGLAMYGYLRWLRNEKAMRLKEDLPYTNSLLIISLILMVVAVIVMGLVLYAG | 2 |
| YgaP (natural protein, E. coli, UniProt P55734 1-174, looked up) MALTTISPHDAQELIARGAKLIDIRDADEYLREHIPEADLAPLSVLEQSGLPAKLRHEQIIFHCQAGKRTSNNADKLAAIAAPAEIFLLEDGIDGWKKAGLPVAVNKSQPLPLMRQVQIAAGGLILIGVVLGYTVNSGFFLLSGFVGAGLLFAGISGFCGMARLLDKMPWNQRA | 2 |
